Laboratory results as given in publication PMC9374335, “C11orf94/Frey is a key regulator for male fertility by controlling Izumo1 complex assembly” (Science Advances, 2022).

Biological target: T1, Izumo1-3xFLAG (mouse, UniProt Q9D9J7 22-397)
T1 construct: Izumo sperm-egg fusion protein 1, mouse; open reading frame amplified from murine testis cDNA; source: HEK293T, transfected, in lysate (CHAPSO); not shown: 3xFLAG, C-terminal, kept
T1 sequence (looked up): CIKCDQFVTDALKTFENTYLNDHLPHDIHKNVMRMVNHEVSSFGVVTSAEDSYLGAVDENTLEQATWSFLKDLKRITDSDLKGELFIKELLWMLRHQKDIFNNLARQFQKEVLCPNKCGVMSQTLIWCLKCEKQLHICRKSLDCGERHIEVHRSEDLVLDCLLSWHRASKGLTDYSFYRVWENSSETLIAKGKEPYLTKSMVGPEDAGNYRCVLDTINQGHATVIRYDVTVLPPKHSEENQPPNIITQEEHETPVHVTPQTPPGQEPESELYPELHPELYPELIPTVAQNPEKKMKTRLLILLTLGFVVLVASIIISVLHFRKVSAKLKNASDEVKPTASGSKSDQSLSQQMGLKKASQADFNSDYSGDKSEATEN
Assay: co-IP; CHAPSO lysates of transfected HEK293T cells; 3xFLAG-tagged bait precipitated with anti-FLAG beads; with or without coexpressed C11orf94-3xmyc; Western blot
Conditions: partners not purified

B1: murine ACE3 equipped with a C-terminal HA-tag (natural protein, mouse, UniProt D0G895 24-737, looked up)
chain: VGETSLNDFYSEAQAKLFLQFYEQTAQVVLNEFMEATWNYVTNITKQNQKNMLQKEADRSQFMLYFSTRARMFRTDHFLNQDVKRMLRKLQNIDKSALPTEDLLEYNRLLTYMETAYNRAEVCLDEGPCLTLEPDLQEIMATSRDQKELLWAWQGWRDAVGRQLRPVFEDYVRLSNKAAQYNGYKDMGALWRSKYESDTLEEDLEQLYKELQPLYLNLHAYVRRSLYRYYGPELIDLRGPIPAHLLGNMWAQSWNNILDLVLPYPTKAPEDITAIMKIQHWRPEKMFEEANLFFTSMGMLPAPPAFWIKSMMEKPADGREVECHTSSWNFYKFNDFRVKKCTEVTLEDLLSVFHQMGHIQYFLQYQNLSVIYQEGASPAFEEAVGSVIALSVSSHKYLLARGLLSQPHQDSEEEVNFLLGIALEKIAFIPFSYLVDKFRWKIFDGTISKITYNQEWWNFRLKYQGLCPPVPRSDDDFDPGAKFHIPANVPYIRYFLGLILQFQLHEALCEASGHVGPLHQCDNYNSKVAGKILGDLLKLGSSRPWREVLQEVTGESNISTKAFLTYFKPLMDWLVTENVKQGDTLGWPDFSCSFEEKITSKVSFLGTDTEPEQAYLGQWVLLSMSFFMLVLILALGFRLHYLEKQLLDEDTMILKTLPYSYFLGIAMEPHQAARKQWLLLGLCCILMLCCIGLLIRIVTQNTENTPWMKNEGQS
notes: Angiotensin-converting enzyme 3 (ACE3), mouse; open reading frame amplified from murine testis cDNA; also called ACE3-HA; angiotensin-converting enzyme 3; source: HEK293T, transiently transfected, in lysate (CHAPSO); not shown: HA, C-terminal, kept
  fold change of the co-precipitation in the presence of C11orf94-3xmyc against its absence: ~1.7 fold
